Where no end group is shown, it is not given here.

Details in all cases: both partners purified
One experiment addresses human IL-6 (Homo sapiens, UniProt P05231). In words: pull-down; antibody fragment captured by RGS-tag on AC-resin co- or post-translationally, washed, treated with neutral buffer or 2 M GdnHCl/100 mM DTT then 1 M GdnHCl/10 mM GSH (or fully refolded from 6 M GdnHCl); incubated with 50 uL of 10 uM antigen for 3 h at RT; washed; eluted by boiling or by PreScission cleavage; SDS-PAGE.

A further experiment concerns the target Trypsin (UniProt P00760 18-246). In words: enzyme inhibition assay (trypsin-inhibitory assay); 100 pM trypsin pre-incubated with peptide (twofold dilution series from 4 nM to 3.9 pM) for 3 h at room temperature in 0.1 M NaCl, 10 mM CaCl2, 0.005% Triton X-100, 0.1 M Tris-HCl pH 8.0; residual activity on Boc-Q-A-R-AMC (10 uM); Ki from IC50 by a tight-binding equation, Km 12 uM.

The next experiment concerns the target T1, Human serum albumin (Homo sapiens, UniProt P02768).
T1 construct: also called HSA
In words: pull-down; antibody fragment captured by RGS-tag on AC-resin co- or post-translationally, washed, treated with neutral buffer or 2 M GdnHCl/100 mM DTT then 1 M GdnHCl/10 mM GSH (or fully refolded from 6 M GdnHCl); incubated with 50 uL of 10 uM antigen for 3 h at RT; washed; eluted by boiling or by PreScission cleavage; SDS-PAGE.

human IL-6, sequence (P05231 30-212): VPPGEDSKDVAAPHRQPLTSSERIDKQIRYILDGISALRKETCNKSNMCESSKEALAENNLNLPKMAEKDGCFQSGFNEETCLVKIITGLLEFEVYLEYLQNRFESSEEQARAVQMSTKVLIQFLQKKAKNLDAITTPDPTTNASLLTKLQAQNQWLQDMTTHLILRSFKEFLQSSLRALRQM
Trypsin, sequence (P00760 24-246): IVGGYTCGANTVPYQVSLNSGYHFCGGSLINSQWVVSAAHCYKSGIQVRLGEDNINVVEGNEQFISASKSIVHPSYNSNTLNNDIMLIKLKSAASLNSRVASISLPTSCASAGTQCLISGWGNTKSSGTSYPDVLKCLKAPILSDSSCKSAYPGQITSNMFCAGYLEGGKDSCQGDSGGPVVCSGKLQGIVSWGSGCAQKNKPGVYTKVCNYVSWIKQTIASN

B1: anti-IL-6 scFv (scFv, V domains shown)
VH: QVQLVESGGGLVQPGGSLRLSCAASGFNFNDYFMNWVRQAPGKGLEWVAQMRNKNYQYGTYYAESLEGRFTISRDDSKNSLYLQMNSLKTEDTAVYYCARESYYGFTSYWGQGTLVTVSG
VL: GIQMTQSPSSLSASVGDRVTITCQASQDIGISLSWYQQKPGKAPKLLIYNANNLADGVPSRFSGSGSGTDFTLTISSLQPEDFATYYCLQHNSAPYTFGQGTKLETG
Consider B1, for which the binding result in the experiment with human IL-6 is on record as “binds”.

B2: wild-type MCoTI-II fused to RGS (peptide)
peptide: SGSDGGVCPKILKKCRRDSDCPGACICRGNGYCGGAG
modifications: disulfide (positions not given here); also: three disulfides, pairing not given here, fused to RGS
notes: also called wtMCoTI-RGS; wtMCoTI
Take B2: the “fold Ki against prmMCoTI” value in the experiment with Trypsin is about 4 fold.

B3: anti-HSA scFv (scFv, V domains shown)
VH: EVQLLESGGGLVQPGGSLRLSCAVSGIDLSNYAINWVRQAPGKGLEWIGIIWASGTTFYATWAKGRFTISRDNSKNTVYLQMNSLRAEDTAVYYCARTVPGYSTAPYFDLWGQGTLVTVSS
VL: DIQMTQSPSSVSASVGDRVTITCQSSPSVWSNFLSWYQQKPGKAPKLLIYEASKLTSGVPSRFSGSGSGTDFTLTISSLQPEDFATYYCGGGYSSISDTTFGGGTKVEIK
B3: the binding result with Human serum albumin is “binds”.

B4: anti-HSA Fab (Fab, V domains shown)
VH: EVQLLESGGGLVQPGGSLRLSCAVSGIDLSNYAINWVRQAPGKGLEWIGIIWASGTTFYATWAKGRFTISRDNSKNTVYLQMNSLRAEDTAVYYCARTVPGYSTAPYFDLWGQGTLVTVSS
VL: DIQMTQSPSSVSASVGDRVTITCQSSPSVWSNFLSWYQQKPGKAPKLLIYEASKLTSGVPSRFSGSGSGTDFTLTISSLQPEDFATYYCGGGYSSISDTTFGGGTKVEIK
Turning to B4, the binding result in the experiment with Human serum albumin is listed as “binds”.

B5: anti-IL-6 Fab (Fab, V domains shown)
VH: EVQLQESGPGLVKPSQTLSLTCTVSGGSITTRYYAWSWIRQPPGKGLEWMGVIDYDGDTYYSPSLKSRTSISWDTSKNQFSLQLSSVTPEDTAVYYCARDPDVVTGFHYDYWGQGTQVTVSS
VL: QAVLTQPPLVSGTPGQTVTISCAGANNDIGTYAYVSWYQQLPGTAPKLLIYKVTTRASGIPSRFSGSKSGNTASLTISGLQSEDEADYYCASYRNFNNAVFGRGTHLTVL
Consider B5, for which the binding result with human IL-6 is given as “binds”.

For the origin of these results see PMC8752827 (Nature Communications, 2022).
